We go through 6 molecules from patent US20220168396A1, “MULTI-RECEPTOR AGONIST AND MEDICAL USE THEREOF” (published 2022).

Square brackets hold non-standard residues; d marks the D form. Ends that are not written are not given here. Aib = CC(C)(N)C(=O)O

Assay [1] deals with human glucagon-like peptide-1 receptor (human, UniProt P43220). The assay is described as follows: cell-based or functional assay.
For assay [2], the target named is T1, human glucose-dependent insulinotropic peptide receptor (human, UniProt P48546).
T1 sequence: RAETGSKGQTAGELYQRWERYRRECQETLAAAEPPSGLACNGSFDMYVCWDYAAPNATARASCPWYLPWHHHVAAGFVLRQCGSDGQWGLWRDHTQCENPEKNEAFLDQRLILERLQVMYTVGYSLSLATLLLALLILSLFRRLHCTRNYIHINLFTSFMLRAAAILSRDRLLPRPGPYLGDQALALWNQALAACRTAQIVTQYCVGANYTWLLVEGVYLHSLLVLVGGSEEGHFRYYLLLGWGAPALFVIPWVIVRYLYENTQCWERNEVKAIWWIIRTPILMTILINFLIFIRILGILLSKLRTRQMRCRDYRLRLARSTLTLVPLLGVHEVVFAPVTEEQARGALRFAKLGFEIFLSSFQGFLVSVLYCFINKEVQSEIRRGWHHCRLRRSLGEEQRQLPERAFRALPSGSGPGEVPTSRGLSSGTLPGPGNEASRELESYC
The assay is described as follows: cell-based or functional assay.

B1: Compound No. 10 (peptide)
peptide: Y[Aib]EGTFTSDYSIYLEKEAAQEFVNWLLAGGPSSGAPPPSK-NH2
modifications: N-terminus assumed
SMILES: CC[C@H](C)[C@H](NC(=O)[C@H](CO)NC(=O)[C@H](Cc1ccc(O)cc1)NC(=O)[C@H](CC(=O)O)NC(=O)[C@H](CO)NC(=O)[C@@H](NC(=O)[C@H](Cc1ccccc1)NC(=O)[C@@H](NC(=O)CNC(=O)[C@H](CCC(=O)O)NC(=O)C(C)(C)NC(=O)[C@@H](N)Cc1ccc(O)cc1)[C@@H](C)O)[C@@H](C)O)C(=O)N[C@@H](Cc1ccc(O)cc1)C(=O)N[C@@H](CC(C)C)C(=O)N[C@@H](CCC(=O)O)C(=O)N[C@@H](CCCCN)C(=O)N[C@@H](CCC(=O)O)C(=O)N[C@@H](C)C(=O)N[C@@H](C)C(=O)N[C@@H](CCC(N)=O)C(=O)N[C@@H](CCC(=O)O)C(=O)N[C@@H](Cc1ccccc1)C(=O)N[C@H](C(=O)N[C@@H](CC(N)=O)C(=O)N[C@@H](Cc1c[nH]c2ccccc12)C(=O)N[C@@H](CC(C)C)C(=O)N[C@@H](CC(C)C)C(=O)N[C@@H](C)C(=O)NCC(=O)NCC(=O)N1CCC[C@H]1C(=O)N[C@@H](CO)C(=O)N[C@@H](CO)C(=O)NCC(=O)N[C@@H](C)C(=O)N1CCC[C@H]1C(=O)N1CCC[C@H]1C(=O)N1CCC[C@H]1C(=O)N[C@@H](CO)C(=O)N[C@@H](CCCCN)C(N)=O)C(C)C
As for B1, in assay [1], the “Activity for human GLP-1R (EC50 nM), cAMP HTRF” value (shortened to “Activity for human GLP-1R”) was 0.097 nM. Further, the “Activity for human GIPR (EC50 nM), cAMP HTRF” value (shortened to “Activity for human GIPR”) in assay [2] is 0.006 nM.

B2: Compound No. 8 (peptide)
peptide: Y[Aib]EGTFTSDVSIYLEKEAAEEFVNWLLAGGPSSGAPPPSK-NH2
modifications: N-terminus assumed
SMILES: CC[C@H](C)[C@H](NC(=O)[C@H](CO)NC(=O)[C@@H](NC(=O)[C@H](CC(=O)O)NC(=O)[C@H](CO)NC(=O)[C@@H](NC(=O)[C@H](Cc1ccccc1)NC(=O)[C@@H](NC(=O)CNC(=O)[C@H](CCC(=O)O)NC(=O)C(C)(C)NC(=O)[C@@H](N)Cc1ccc(O)cc1)[C@@H](C)O)[C@@H](C)O)C(C)C)C(=O)N[C@@H](Cc1ccc(O)cc1)C(=O)N[C@@H](CC(C)C)C(=O)N[C@@H](CCC(=O)O)C(=O)N[C@@H](CCCCN)C(=O)N[C@@H](CCC(=O)O)C(=O)N[C@@H](C)C(=O)N[C@@H](C)C(=O)N[C@@H](CCC(=O)O)C(=O)N[C@@H](CCC(=O)O)C(=O)N[C@@H](Cc1ccccc1)C(=O)N[C@H](C(=O)N[C@@H](CC(N)=O)C(=O)N[C@@H](Cc1c[nH]c2ccccc12)C(=O)N[C@@H](CC(C)C)C(=O)N[C@@H](CC(C)C)C(=O)N[C@@H](C)C(=O)NCC(=O)NCC(=O)N1CCC[C@H]1C(=O)N[C@@H](CO)C(=O)N[C@@H](CO)C(=O)NCC(=O)N[C@@H](C)C(=O)N1CCC[C@H]1C(=O)N1CCC[C@H]1C(=O)N1CCC[C@H]1C(=O)N[C@@H](CO)C(=O)N[C@@H](CCCCN)C(N)=O)C(C)C
For B2, the “Activity for human GLP-1R” value in assay [1] was found to be 0.07 nM. For the same molecule, the “Activity for human GIPR” value in assay [2] was determined as 0.12 nM.

B3: Compound No. 9 (peptide)
peptide: Y[Aib]EGTFTSDYSIYLEKEAAKEFVNWLLAGGPSSGAPPPSK-NH2
modifications: N-terminus assumed
SMILES: CC[C@H](C)[C@H](NC(=O)[C@H](CO)NC(=O)[C@H](Cc1ccc(O)cc1)NC(=O)[C@H](CC(=O)O)NC(=O)[C@H](CO)NC(=O)[C@@H](NC(=O)[C@H](Cc1ccccc1)NC(=O)[C@@H](NC(=O)CNC(=O)[C@H](CCC(=O)O)NC(=O)C(C)(C)NC(=O)[C@@H](N)Cc1ccc(O)cc1)[C@@H](C)O)[C@@H](C)O)C(=O)N[C@@H](Cc1ccc(O)cc1)C(=O)N[C@@H](CC(C)C)C(=O)N[C@@H](CCC(=O)O)C(=O)N[C@@H](CCCCN)C(=O)N[C@@H](CCC(=O)O)C(=O)N[C@@H](C)C(=O)N[C@@H](C)C(=O)N[C@@H](CCCCN)C(=O)N[C@@H](CCC(=O)O)C(=O)N[C@@H](Cc1ccccc1)C(=O)N[C@H](C(=O)N[C@@H](CC(N)=O)C(=O)N[C@@H](Cc1c[nH]c2ccccc12)C(=O)N[C@@H](CC(C)C)C(=O)N[C@@H](CC(C)C)C(=O)N[C@@H](C)C(=O)NCC(=O)NCC(=O)N1CCC[C@H]1C(=O)N[C@@H](CO)C(=O)N[C@@H](CO)C(=O)NCC(=O)N[C@@H](C)C(=O)N1CCC[C@H]1C(=O)N1CCC[C@H]1C(=O)N1CCC[C@H]1C(=O)N[C@@H](CO)C(=O)N[C@@H](CCCCN)C(N)=O)C(C)C
For B3, the “Activity for human GLP-1R” value in assay [1] came to 0.011 nM. The “Activity for human GIPR” value in assay [2] came to 0.018 nM.

B4: Compound No. 12 (peptide)
peptide: Y[Aib]EGTFTSDYSIYLE[Aib]EAAKEFVNWLLAGGPSSGAPPPSK-NH2
modifications: N-terminus assumed
SMILES: CC[C@H](C)[C@H](NC(=O)[C@H](CO)NC(=O)[C@H](Cc1ccc(O)cc1)NC(=O)[C@H](CC(=O)O)NC(=O)[C@H](CO)NC(=O)[C@@H](NC(=O)[C@H](Cc1ccccc1)NC(=O)[C@@H](NC(=O)CNC(=O)[C@H](CCC(=O)O)NC(=O)C(C)(C)NC(=O)[C@@H](N)Cc1ccc(O)cc1)[C@@H](C)O)[C@@H](C)O)C(=O)N[C@@H](Cc1ccc(O)cc1)C(=O)N[C@@H](CC(C)C)C(=O)N[C@@H](CCC(=O)O)C(=O)NC(C)(C)C(=O)N[C@@H](CCC(=O)O)C(=O)N[C@@H](C)C(=O)N[C@@H](C)C(=O)N[C@@H](CCCCN)C(=O)N[C@@H](CCC(=O)O)C(=O)N[C@@H](Cc1ccccc1)C(=O)N[C@H](C(=O)N[C@@H](CC(N)=O)C(=O)N[C@@H](Cc1c[nH]c2ccccc12)C(=O)N[C@@H](CC(C)C)C(=O)N[C@@H](CC(C)C)C(=O)N[C@@H](C)C(=O)NCC(=O)NCC(=O)N1CCC[C@H]1C(=O)N[C@@H](CO)C(=O)N[C@@H](CO)C(=O)NCC(=O)N[C@@H](C)C(=O)N1CCC[C@H]1C(=O)N1CCC[C@H]1C(=O)N1CCC[C@H]1C(=O)N[C@@H](CO)C(=O)N[C@@H](CCCCN)C(N)=O)C(C)C
For B4, the “Activity for human GLP-1R” value in assay [1] worked out at 0.013 nM. For the same molecule, the “Activity for human GIPR” value in assay [2] is 0.081 nM.

B5: Compound No. 13 (peptide)
peptide: Y[Aib]EGTFTSDYSIYLEKIAAKEFVNWLLAGGPSSGAPPPSK-NH2
modifications: N-terminus assumed
SMILES: CC[C@H](C)[C@H](NC(=O)[C@H](CCCCN)NC(=O)[C@H](CCC(=O)O)NC(=O)[C@H](CC(C)C)NC(=O)[C@H](Cc1ccc(O)cc1)NC(=O)[C@@H](NC(=O)[C@H](CO)NC(=O)[C@H](Cc1ccc(O)cc1)NC(=O)[C@H](CC(=O)O)NC(=O)[C@H](CO)NC(=O)[C@@H](NC(=O)[C@H](Cc1ccccc1)NC(=O)[C@@H](NC(=O)CNC(=O)[C@H](CCC(=O)O)NC(=O)C(C)(C)NC(=O)[C@@H](N)Cc1ccc(O)cc1)[C@@H](C)O)[C@@H](C)O)[C@@H](C)CC)C(=O)N[C@@H](C)C(=O)N[C@@H](C)C(=O)N[C@@H](CCCCN)C(=O)N[C@@H](CCC(=O)O)C(=O)N[C@@H](Cc1ccccc1)C(=O)N[C@H](C(=O)N[C@@H](CC(N)=O)C(=O)N[C@@H](Cc1c[nH]c2ccccc12)C(=O)N[C@@H](CC(C)C)C(=O)N[C@@H](CC(C)C)C(=O)N[C@@H](C)C(=O)NCC(=O)NCC(=O)N1CCC[C@H]1C(=O)N[C@@H](CO)C(=O)N[C@@H](CO)C(=O)NCC(=O)N[C@@H](C)C(=O)N1CCC[C@H]1C(=O)N1CCC[C@H]1C(=O)N1CCC[C@H]1C(=O)N[C@@H](CO)C(=O)N[C@@H](CCCCN)C(N)=O)C(C)C
On to B5, for which the “Activity for human GLP-1R” value in assay [1] was determined as 0.013 nM. For the same molecule, in assay [2], the “Activity for human GIPR” value is 0.017 nM.

B6: Compound No. 11 (peptide)
peptide: Y[Aib]EGTFTSDYSIYLEKEAQKEFVNWLLAGGPSSGAPPPSK-NH2
modifications: N-terminus assumed
SMILES: CC[C@H](C)[C@H](NC(=O)[C@H](CO)NC(=O)[C@H](Cc1ccc(O)cc1)NC(=O)[C@H](CC(=O)O)NC(=O)[C@H](CO)NC(=O)[C@@H](NC(=O)[C@H](Cc1ccccc1)NC(=O)[C@@H](NC(=O)CNC(=O)[C@H](CCC(=O)O)NC(=O)C(C)(C)NC(=O)[C@@H](N)Cc1ccc(O)cc1)[C@@H](C)O)[C@@H](C)O)C(=O)N[C@@H](Cc1ccc(O)cc1)C(=O)N[C@@H](CC(C)C)C(=O)N[C@@H](CCC(=O)O)C(=O)N[C@@H](CCCCN)C(=O)N[C@@H](CCC(=O)O)C(=O)N[C@@H](C)C(=O)N[C@@H](CCC(N)=O)C(=O)N[C@@H](CCCCN)C(=O)N[C@@H](CCC(=O)O)C(=O)N[C@@H](Cc1ccccc1)C(=O)N[C@H](C(=O)N[C@@H](CC(N)=O)C(=O)N[C@@H](Cc1c[nH]c2ccccc12)C(=O)N[C@@H](CC(C)C)C(=O)N[C@@H](CC(C)C)C(=O)N[C@@H](C)C(=O)NCC(=O)NCC(=O)N1CCC[C@H]1C(=O)N[C@@H](CO)C(=O)N[C@@H](CO)C(=O)NCC(=O)N[C@@H](C)C(=O)N1CCC[C@H]1C(=O)N1CCC[C@H]1C(=O)N1CCC[C@H]1C(=O)N[C@@H](CO)C(=O)N[C@@H](CCCCN)C(N)=O)C(C)C
Consider B6, for which the “Activity for human GLP-1R” value in assay [1] was found to be 0.08 nM. Besides, the “Activity for human GIPR” value in assay [2] stood at 0.014 nM.
